Experiment [1] has as its target T1, hIL10Rb-his (Sino Biological, Catalog#10945) (human, UniProt Q08334 20-220).
T1 construct: Bought; also called Sino Biological cat#10945-H08H; not shown: C-terminal poly-His tag
T1 sequence: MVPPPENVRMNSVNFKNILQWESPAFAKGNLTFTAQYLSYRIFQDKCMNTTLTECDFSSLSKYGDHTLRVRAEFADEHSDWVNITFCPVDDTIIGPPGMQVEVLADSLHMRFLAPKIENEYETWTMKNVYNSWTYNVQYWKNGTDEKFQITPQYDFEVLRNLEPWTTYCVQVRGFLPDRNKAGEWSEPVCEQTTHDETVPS
In words: SPR; ratio of experimental to calculated Rmax.

Experiment [2] concerns the target T2, hIL10Ra-his (Sino Biological, Catalog#10419) (human, UniProt Q13651 22-235).
T2 construct: Bought; also called Sino Biological cat#10419-H08H; not shown: C-terminal poly-His tag
T2 sequence: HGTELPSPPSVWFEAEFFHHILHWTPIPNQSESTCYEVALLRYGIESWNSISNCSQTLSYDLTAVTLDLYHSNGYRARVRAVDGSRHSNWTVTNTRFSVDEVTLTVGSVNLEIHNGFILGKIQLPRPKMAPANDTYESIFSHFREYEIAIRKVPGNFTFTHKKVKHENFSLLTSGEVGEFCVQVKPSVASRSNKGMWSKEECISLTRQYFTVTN
In words: SPR Biacore T200; biotinylated dual VHH captured on CAP biotin chip, hIL10Ra-his analyte; 1:1 Langmuir fit.

The target of experiment [3] is T1, hIL10Rb-his (Sino Biological, …). In words: SPR Biacore T200; biotinylated dual VHH captured on CAP biotin chip, hIL10Rb-his analyte; 1:1 Langmuir fit.
The target is the same in experiment [4]. In words: SPR; ratio of experimental to calculated Rmax. This is another data set of the same source.
For experiment [5] the target is unchanged. In words: SPR Biacore T200; mono-Fc VHH captured on Protein A chip, hIL10Rb-his analyte; 1:1 Langmuir fit.
Experiment [6] addresses T2, hIL10Ra-his (Sino Biological, …). Put plainly: SPR; ratio of experimental to calculated Rmax. The source says: (§1) To confirm and evaluate binding affinities of the binding of the IL10Ra sdAbs, a representative example from each clonotype generated was selected for evaluation of binding via SPR. […] Buffer-subtracted sensograms were processed with Biacore T200 Evaluation Software and globally fit with a 1:1 Langmuir binding model (bulk shift set to zero) to extract kinetics and affinity constants (kₐ, kd, KD). RMAX<100 RU indicates surface density compatible with kinetics analysis. Calculated Rₘₐₓ values were generated using the equation: Rₘₐₓ=Load (RU)×valency of ligand×(Molecular weight of analyte/Molecular weight of ligand). Surface activity was defined as the ratio of experimental/calculated Rmax.
(§2) One representative example from each clonotype of IL10a generated in accordance with Examples 1-3 was selected for evaluation of binding via SPR as follows. […] All experiments were conducted in 10 mM Hepes, 150 mM NaCl, 0.05% (v/v) Polysorbate 20 (PS20) and 3 mM EDTA (HBS-EP+ buffer) on a Biacore T200 instrument equipped with a Protein A derivatized sensor chip (Cytiva). Mono-Fc VHH ligands were flowed at 5 μl/min for variable time ranging from 18 to 300 seconds, reaching the capture loads listed in the tables below. Following ligand capture, injections of a 2-fold dilution series of the extracellular domain of the IL2Rb-receptor modified to incorporate a C-terminal poly-His sequence, typically comprising at least five concentrations between 1 μM and 1 nM, were performed in either high performance or single cycle kinetics mode. Surface regeneration was achieved by flowing 10 mM glycine-HCl, pH 1.5 (60 seconds, 50 μL/min).

For experiment [7] the target is unchanged. In words: SPR Biacore T200; mono-Fc VHH captured on Protein A chip, hIL10Ra-his analyte; 1:1 Langmuir fit.
Source text: as §1
as §2, with “[…],” for “injections of a 2-fold dilution series of the extracellular domain of the IL2Rb-receptor modified to incorporate a C-terminal poly-His sequence,”

The target of a further experiment is T3, mIL10Rb ECD antigen (mouse, UniProt Q61190 20-220).
T3 construct: Antigen of biopanning and PE-ELISA; also called extracellular domain of mIL10Rb
T3 sequence: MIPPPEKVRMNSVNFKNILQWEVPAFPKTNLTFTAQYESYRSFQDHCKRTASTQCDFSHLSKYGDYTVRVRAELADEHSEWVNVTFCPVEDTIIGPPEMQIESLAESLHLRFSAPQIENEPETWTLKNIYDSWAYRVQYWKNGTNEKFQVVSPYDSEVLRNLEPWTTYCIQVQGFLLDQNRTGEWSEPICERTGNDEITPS
In words: periplasmic extract ELISA (PE-ELISA) of phage clones.

B1: hIL10Rb_VHH1-hIL10Ra_VHH9-biotin (bispecific antibody)
chain: QVQLQESGGGSVQAGGSLRLSCAASGYTYSSGCMGWFRQAPGKEREAVAAINSDGSTSYADSVKGRFTISKDNAKNTLYLQMNSLKPEDTAMYYCAAEPYCSGGYPRWSVAEFGYWGQGTQVTVSSGGGSQVQLQESGGGSVQAGGSLRLSCAVSGYAYSTYCMGWFRQAPGKEREGVAAIDSGGSTSYADSVKGRFTISKDNAKNTLYLRMNSLKPEDTAMYYCAAVPPPPDGGSCLFLGPEIKVSKADFRYWGQGTQVTVSS
modifications: conjugated to biotin (site not stated)
With B1, the Activity in experiment [1] is 25%. In experiment [2], this molecule registered a Kd of 1.1 nM, a koff of 0.00027 s⁻¹ and a kon of 250000 M⁻¹ s⁻¹. For the same molecule, in experiment [3], the Kd came out at 2.7 nM, the koff was 0.0018 s⁻¹ and the kon turned out to be 660000 M⁻¹ s⁻¹.

B2: hIL-10Rb_VHH1 Mono-Fc (Fc fusion)
chain: QVQLQESGGGSVQAGGSLRLSCAASGYTYSSGCMGWFRQAPGKEREAVAAINSDGSTSYADSVKGRFTISKDNAKNTLYLQMNSLKPEDTAMYYCAAEPYCSGGYPRWSVAEFGYWGQGTQVTVSS
notes: Mono-Fc VHH captured on Protein A; not shown: mono-Fc part
For B2, the “Surface Activity” value in experiment [4] is 82%. In experiment [5], this molecule registered a Kd of 8.3 nM, a koff of 0.00144 s⁻¹ and a kon of 175000 M⁻¹ s⁻¹.

B3: hIL-10Ra_VHH17 Mono-Fc (Fc fusion)
chain: QVQLQESGGGSVQAGGSLRLSCAASGYSNCSYDMTWYRQAPGKEREFVSAIHSDGSTRYADSVKGRFFISQDNAKNTVYLQMNSLKPEDTAMYYCKTDPLHCRAHGGSWYSVRANYWGQGTQVTVSS
notes: as for B2
For B3, in experiment [6], the “Surface Activity” value is 35%. In experiment [7], this molecule registered a Kd of 6 nM, an off-rate (koff) of 0.00197 s⁻¹ and a kon of 327000 M⁻¹ s⁻¹.

B4: hIL-10Ra_VHH14 Mono-Fc (Fc fusion)
chain: QVQLQESGGGSVQAGGSLRLSCGASGYTYSSYCMGWFRQVPGKEREGVAVIDSDGSTSYADSVKGRFTISKDNGKNTLYLQMNSLKPEDTAMYYCAADLGHYRPPCGVLYLGMDYWGKGTQVTVSS
notes: as for B2
With B4, in experiment [6], the “Surface Activity” value was 51%. In experiment [7], this molecule had a Kd of 1.4 nM, a koff of 0.000136 s⁻¹ and a kon of 98400 M⁻¹ s⁻¹.

B5: hIL-10Rb_VHH12 Mono-Fc (Fc fusion)
chain: QVQLQESGGGSVQAGGSLRLSCAASGYTYSSYCMGWFRQAPGKEREGVAHIDSDGSTSYADSVKGRFTISKDNAKNTLYLQMNSLKPEDTAMYYCAADPIPGPGYCDGGPNKYWGQGTQVTVSS
notes: as for B2
Consider B5, for which the “Surface Activity” value in experiment [4] is 67%. Also, in experiment [5], the Kd worked out at 12.9 nM, the koff is 0.00143 s⁻¹ and the kon worked out at 111000 M⁻¹ s⁻¹.

B6: DR1323 (anti mouse mIL10Rb VHH) (VHH)
VHH: QVQLQESGGGSVQAGGSLRLSCVASGDTYSRKYIAWVRQVPGKEREGVAVMYTPGSATYYTDTVMGRFTISQDNAKNTVYLQMNSLKPEDTAMYFCAAKASGSMFNFRDYTYWGQGTQVTVSS
notes: Phage clone, periplasmic extract
Turning to B6, in the experiment with mIL10Rb ECD antigen, the binding result was “binds”.

B7: DR1324 (anti mouse mIL10Rb VHH) (VHH)
VHH: QVQLQESGGGSVQAGGSLRLSCATSGYASCSRAMRWYRQAPGKEREFVAYIDGVGSTGYADSVKGRFTISQDNAKYTAYLQMNSLKPEDTAMYYCNRGCRADGSNSLDNYWGQGTQVTVSS
notes: as for B6
Regarding B7, the binding result with mIL10Rb ECD antigen is reported as “binds”.

B8: hIL-10Rb_VHH3 Mono-Fc (Fc fusion)
chain: QVQLQESGGGSVQAGGSLRLSCAASRYTYNSYCMGWFRQAPGKEREGVATIDSDGMTRYADSVKGRFTISKDNAKNTLYLQMNSLKPEDTAMYYCAADADCTIAAMTTNPLGQGTQVTVSS
notes: as for B2
For the molecule B8, in experiment [4], the “Surface Activity” value is 52%. For the same molecule, in experiment [5], the Kd was 231 nM, the dissociation rate constant (koff) worked out at 0.0214 s⁻¹ and the kon was 92900 M⁻¹ s⁻¹.

B9: DR1326 (anti mouse mIL10Rb VHH) (VHH)
VHH: QVQLQESGGGSVQAGGSLRLSCTASRYIALNACMAWIRQAPGSEREVVATIVTDGSRTYYADSVKGRFTISQDNAKNTMYLQMNGLKPEDTAMYYCAADRRCPVSRAPYEYELRYWGQGTQVTVSS
notes: as for B6
For the molecule B9, the binding result with mIL10Rb ECD antigen is on record as “binds”.

B10: DR1327 (anti mouse mIL10Rb VHH) (VHH)
VHH: QVQLQESGGGSVQAGGSLRLSCAASGYTYNGKCMAWFRQAPGKEREVVAGIYTGGSSTYYADSVKGRFTISQDNAKNTVYLQMDSLKPEDTAMYYCATSRSCSDLRRRSIAYWGQGTQVTVSS
notes: as for B6
With B10, the binding result with mIL10Rb ECD antigen is “binds”.

B11: hIL-10Rb_VHH27 Mono-Fc (Fc fusion)
chain: QVQLQESGGGSVQTGGSLRLSCAASGYTYLRGCMGWFRQAPGKEREGVAVMDVVGDRRSYIDSVKGRFTISRDNAANSVYLQMDNLKPEDTAMYYCTAGPNCVGWRSGLDYWGQGTQVTVSS
notes: as for B2
Consider B11, for which the “Surface Activity” value in experiment [4] is 24%. In experiment [5], this molecule came in with a Kd of 2.4 nM, a koff of 0.0254 s⁻¹ and an on-rate (kon) of 1.07e+07 M⁻¹ s⁻¹.

B12: DR1325 (anti mouse mIL10Rb VHH) (VHH)
VHH: QVQLQESGGGSVQAGGSLRLSCAASGYTYNRRFMGWFRQAPGKEREGLAIIYTPNSSTFYADSVTGRFTISQDSARNTVYLQMNSLKPEDTAMYYCAAARIASMTELSVRDMDYWGKGTQVTVSS
notes: as for B6
Take B12: the binding result in the experiment with mIL10Rb ECD antigen is listed as “binds”.

B13: hIL-10Rb_VHH26 Mono-Fc (Fc fusion)
chain: QVQLQESGGGSVQAGGSLRLSCAASGYSYSSYCMGWFRQAPGKEREGVATIDSDGMTRYADSVKGRFTISKDNAKNTLYLQMNSLKPEDTAMYYCAAPLYDCDSGAVGRNPPYWGQGTQVTVSS
notes: as for B2
As to B13, the “Surface Activity” value in experiment [4] is 54%. In addition, in experiment [5], the affinity, expressed as Kd, was 314 nM; the koff amounted to 0.0213 s⁻¹; the kon turned out to be 67800 M⁻¹ s⁻¹.

B14: DR1322 (anti mouse mIL10Rb VHH) (VHH)
VHH: QVQLQESGGGSVQAGGALRLSCTASGYTASSICMGWFRQAPGKERERVAVITTAASGTYYADSVNGRFSISQNNAKNTVYLQMNSLKPDDTAMYYCAATRRGGDCLDPLQTPAYNTWGQGTQVTVSS
notes: as for B6
Regarding B14, in the experiment with mIL10Rb ECD antigen, the binding result is on record as “binds”.

B15: hIL-10Rb_VHH15 Mono-Fc (Fc fusion)
chain: QVQLQESGGGSVQAGGSLRLSCTVSRYTASVNYMGWFRQAPGKEREGVATIFTGAGTTYYANSVKGRFTISRDNAKNTAYLQMNSLKPEDTAIYYCAVDFRGGLLYRPAYEYTYRGQGTQVTVSS
notes: as for B2
Turning to B15, the “Surface Activity” value in experiment [4] was 18%. In experiment [5], this molecule came in with a Kd of 121 nM, a koff of 0.00866 s⁻¹ and a kon of 71800 M⁻¹ s⁻¹.

The values above are taken from US20250163167A1 (SYNTHEKINE, published 2025).
